The results in this text go back to patent publication US20070196883A1 (UNIVERSITY OF DUNDEE, published 2007).

Ends that are not written are not given here. * marks the point of attachment. Biotin = O=C1N[C@H]2[C@H](CS[C@H]2CCCCC(=O)*)N1

Assay [1] addresses T1, His-PDK1 (Myc-PDK1 with an N-terminal hexahistidine sequence, from Sf21 insect cells) (human, UniProt O15530 1-556).
T1 construct: Purified by Ni-NTA agarose, >90% homogeneous; also called His-tagged PDK1
T1 sequence: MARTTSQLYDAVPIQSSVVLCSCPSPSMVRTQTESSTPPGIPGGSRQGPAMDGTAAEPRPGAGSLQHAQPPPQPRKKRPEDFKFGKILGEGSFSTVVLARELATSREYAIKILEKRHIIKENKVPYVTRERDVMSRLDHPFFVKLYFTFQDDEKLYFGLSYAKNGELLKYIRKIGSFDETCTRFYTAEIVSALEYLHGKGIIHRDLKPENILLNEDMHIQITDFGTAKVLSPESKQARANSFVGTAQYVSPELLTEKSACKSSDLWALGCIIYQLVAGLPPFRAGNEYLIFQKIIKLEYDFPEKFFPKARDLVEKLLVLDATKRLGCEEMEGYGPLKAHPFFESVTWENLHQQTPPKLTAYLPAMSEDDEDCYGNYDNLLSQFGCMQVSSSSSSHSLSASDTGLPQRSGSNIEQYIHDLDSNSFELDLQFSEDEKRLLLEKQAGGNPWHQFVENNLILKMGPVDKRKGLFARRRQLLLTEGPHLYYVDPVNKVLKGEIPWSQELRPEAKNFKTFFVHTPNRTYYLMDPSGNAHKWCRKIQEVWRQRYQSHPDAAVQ
In words: SPR, His-PDK1 over the biotinylated peptide on Sensor Chip SA, steady state.

The target in assay [2] is T1, His-PDK1 (Myc-PDK1 with an N-terminal …). In words: SPR competition: 0.5 µM His-PDK1 mixed with 0-3 µM free Region B peptide, injected over the immobilised peptide.
Assay [3] has the same target. In words: SPR competition with the immobilised Region B peptide.
Another assay has as its target T2, GST-MSK1 (UniProt O75582 1-802).
T2 construct: not shown: glutathione S-transferase (GST) tag
The experiment in a line: GST pull-down from 293 cells, PDK1 immunoblot and activity. (A western blot detects proteins with antibodies after separation by electrophoresis.)

T2 sequence (O75582 whole entry): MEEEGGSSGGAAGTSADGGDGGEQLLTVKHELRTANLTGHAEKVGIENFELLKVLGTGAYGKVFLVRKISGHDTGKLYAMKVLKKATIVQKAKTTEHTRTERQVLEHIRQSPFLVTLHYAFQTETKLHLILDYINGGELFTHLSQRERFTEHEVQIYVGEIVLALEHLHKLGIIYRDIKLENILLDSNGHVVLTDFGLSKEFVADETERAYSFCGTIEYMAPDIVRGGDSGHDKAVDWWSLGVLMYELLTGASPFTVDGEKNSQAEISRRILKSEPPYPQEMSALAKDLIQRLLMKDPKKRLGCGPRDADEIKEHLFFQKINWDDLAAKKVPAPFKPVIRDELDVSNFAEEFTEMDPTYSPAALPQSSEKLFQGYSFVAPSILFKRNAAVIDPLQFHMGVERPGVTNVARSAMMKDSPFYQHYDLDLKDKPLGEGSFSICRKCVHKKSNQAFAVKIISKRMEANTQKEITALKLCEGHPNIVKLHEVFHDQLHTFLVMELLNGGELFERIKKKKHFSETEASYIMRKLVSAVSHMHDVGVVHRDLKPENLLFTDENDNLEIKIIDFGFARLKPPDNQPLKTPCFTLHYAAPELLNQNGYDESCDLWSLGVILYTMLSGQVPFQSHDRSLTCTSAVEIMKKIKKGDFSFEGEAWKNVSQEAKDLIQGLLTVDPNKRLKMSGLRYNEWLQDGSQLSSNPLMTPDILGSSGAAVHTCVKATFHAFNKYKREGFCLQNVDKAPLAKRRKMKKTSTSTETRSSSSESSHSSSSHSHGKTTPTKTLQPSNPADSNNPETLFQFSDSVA

B1: immobilised and biotinylated 24 residue synthetic peptide corresponding to the Region B peptide (peptide)
peptide: REPRILSEEEQEMFRDFDYIADWC(Biotin)
notes: also called Region B peptide, biotinylated
For B1, binding in assay [1] was characterised by a dissociation constant (Kd) of 0.8 µM.

B2: Region B peptide (24 residue synthetic peptide corresponding to Region B of PIF) (peptide)
peptide: REPRILSEEEQEMFRDFDYIADWC
notes: also called free peptide; wild type peptide
B2: binding in assay [2] was put at a Kd of 1.5 µM.

B3: D978A-Region B peptide (peptide)
peptide: REPRILSEEEQEMFRDFAYIADWC
notes: Range 961-984 is worked out from 'C-terminal 24 amino acids'
B3: the “fold less strongly than the Region B peptide” value in assay [3] worked out at 10 fold.

B4: endogenous PDK1 of 293 cells (enzyme, UniProt O15530 1-556, looked up)
chain: MARTTSQLYDAVPIQSSVVLCSCPSPSMVRTQTESSTPPGIPGGSRQGPAMDGTAAEPRPGAGSLQHAQPPPQPRKKRPEDFKFGKILGEGSFSTVVLARELATSREYAIKILEKRHIIKENKVPYVTRERDVMSRLDHPFFVKLYFTFQDDEKLYFGLSYAKNGELLKYIRKIGSFDETCTRFYTAEIVSALEYLHGKGIIHRDLKPENILLNEDMHIQITDFGTAKVLSPESKQARANSFVGTAQYVSPELLTEKSACKSSDLWALGCIIYQLVAGLPPFRAGNEYLIFQKIIKLEYDFPEKFFPKARDLVEKLLVLDATKRLGCEEMEGYGPLKAHPFFESVTWENLHQQTPPKLTAYLPAMSEDDEDCYGNYDNLLSQFGCMQVSSSSSSHSLSASDTGLPQRSGSNIEQYIHDLDSNSFELDLQFSEDEKRLLLEKQAGGNPWHQFVENNLILKMGPVDKRKGLFARRRQLLLTEGPHLYYVDPVNKVLKGEIPWSQELRPEAKNFKTFFVHTPNRTYYLMDPSGNAHKWCRKIQEVWRQRYQSHPDAAVQ
notes: Two bands (63 and 66 kDa) both co-purified with GST-PIF; also called PDK1 immunoreactive bands at 63 kDa and 66 kDa
For B4, in the assay with GST-MSK1, the binding result is on record as “no binding”.
